Earlier results on 1 substance are cited in PMC12498412.

What is called Kd is the constant that tells how readily two partners part at equilibrium.

This data set deals with Barnase (Bacillus amyloliquefaciens) (UniProt P00648).
Barnase (Bacillus amyloliquefaciens), sequence (P00648 48-157): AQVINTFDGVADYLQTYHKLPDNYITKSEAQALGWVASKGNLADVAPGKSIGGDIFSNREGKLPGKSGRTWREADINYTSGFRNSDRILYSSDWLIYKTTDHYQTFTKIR

Barstar, sequence (P11540 2-90): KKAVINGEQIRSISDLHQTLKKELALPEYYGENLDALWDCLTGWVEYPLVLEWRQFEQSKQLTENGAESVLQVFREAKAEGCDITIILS

In the case of Barstar (from UniProt P11540), the Kd was 64 nM.
